Molecular target: T1, P-selectin glycoprotein ligand 1 (PSGL-1) expressed by cells (naive human T cells, HL-60 cells, PBMCs) (human, UniProt Q14242 42-412)
T1 construct: also called SELPLG; CD162
T1 sequence: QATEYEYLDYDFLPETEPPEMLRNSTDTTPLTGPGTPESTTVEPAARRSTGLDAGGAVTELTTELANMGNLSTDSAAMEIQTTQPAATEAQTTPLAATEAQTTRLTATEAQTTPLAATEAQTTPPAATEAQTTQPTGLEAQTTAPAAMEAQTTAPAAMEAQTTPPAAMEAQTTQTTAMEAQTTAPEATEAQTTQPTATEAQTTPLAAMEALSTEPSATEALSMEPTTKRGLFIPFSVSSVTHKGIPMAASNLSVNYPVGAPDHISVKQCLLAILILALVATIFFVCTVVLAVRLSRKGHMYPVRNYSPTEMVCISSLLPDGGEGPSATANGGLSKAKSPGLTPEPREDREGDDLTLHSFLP
Assay: CAPTIREC/TRICEPS ligand-receptor capture on naive human T cells, LC-MS/MS; enrichment against the anti-CD28 antibody control
Protocol: An overview of the […]™ procedure is outlined in FIG. 1. Briefly, the VISTA-Fc fusion protein and the anti-CD28 antibody were separately coupled with TRICEPS™ Naïve human T cells were isolated from commercially available primary human T cells. The surface glycoproteins of the naïve T cells were selectively oxidized. Ligand binding and receptor coupling to the cell surface of the oxidized naïve T cells was performed. The reacted T cells were then lysed and the resulting lysate was affinity purified for the ligand-receptor protein complexes. The purified proteins where then cleaved by trypsin digestion, thereby releasing receptor peptides. The resulting receptor peptides were analyzed by liquid chromatography-tandem mass spectrometry (LC-MS/MS). […]
The resulting receptor peptides were analyzed by LC-MS/MS on a Thermo LTQ Orbitrap XL spectrometer fitted with an electrospray ion source. The samples were measured in data dependent acquisition mode in a 120 min gradient using a 10 cm C18 packed column. Six individual samples in the […]™ dataset were analyzed with a statistical ANOVA model. […]
Peptide identifications were filtered to an FDR of <=1% and quantified using an MS1-based label-free approach. For the MS1 quantification, the nonlinear DYNAMICS Progenesis QI for proteomics software was used, set to consider all unique peptides. […]

B1: VISTA-Fc fusion protein (Fc fusion)
chain: FKVATPYSLYVCPEGQNVTLTCRLLGPVDKGHDVTFYKTWYRSSRGEVQTCSERRPIRNLTFQDLHLHHGGHQAANTSHDLAQRHGLESASDHHGNFSITMRNLTLLDSGLYCCLVVEIRHHHSEHRVHGAMELQVQTGKDAPSNCVVYPSSSQDSENIRSVECPPCPAPPVAGPSVFLFPPKPKDTLMISRTPEVTCVVVDVSHEDPEVKFNWYVDGVEVHNAKTKPREEQYNSTYRVVSVLTVLHQDWLNGKEYKCKVSNKGLPSSIEKTISKAKGQPREPQVYTLPPSREEMTKNQVSLTCLVKGFYPSDIAVEWESNGQPENNYKTTPPVLDSDGSFFLYSKLTVDKSRWQQGNVFSCSVMHEALHNHYTQKSLSLSPGK
In the case of B1, the “Log2 FC” value is reported as 2.33 log2 fold change.
